Consider four molecules from patent US20100119588A1.

The target in assay [1] is hemagglutinin (HA) of influenza virus type A subtype H3 A/Wuhan/359/95 (H3N2), ether extract (influenza virus type A, A/Wuhan/359/95 (H3N2)).
The target of assay [2] is hemagglutinin (HA) of influenza virus type A subtype H1 A/PR/8/34 (H1N1), ether extract (influenza virus type A, A/PR/8/34 (H1N1)), P03452. As to the kind of experiment: phage ELISA, HA immobilised on plate, normalised to A-1 = 1. For orientation: ELISA stands for enzyme-linked immunosorbent assay.
Assay [3] deals with hemagglutinin (HA) of influenza virus type A subtype H3 A/Wuhan/359/95 (H3N2), ether extract (influenza virus type A, A/Wuhan/359/95 (H3N2)). The description is as above.
Assay [4] addresses hemagglutinin H3 (GM3 inhibition ELISA, strain not stated).

No end group written: not given here.

B1: s-2 peptide, chemosynthesized, …-NH2 (peptide)
peptide: ARLPRTMVHPKPAQP-NH2
For B1, the fold binding relative to A-1 in assay [1] was determined as 2.1 fold.

B2: filamentous phage fd presenting peptide s-2 (SEQ ID NO: 3) (peptide)
chain: ARLPRTMVHPKPAQP
modifications: not checked
With B2, the fold binding activity relative to A-1 in assay [2] and in assay [3] was 3 fold in each case.

B3: A-1 peptide, chemosynthesized, …-NH2 (peptide)
peptide: ARLSPTMVHPNGAQP-NH2
Regarding B3, the IC50 (usually the concentration that gives 50% inhibition) in assay [4] was determined as 1900 µM.

B4: e-1 peptide, chemosynthesized, …-NH2 (peptide)
peptide: ARLPPTMVRPNGPQP-NH2
For B4, the fold binding relative to A-1 in assay [1] was determined as 1.2 fold.
